Laboratory results as given in patent publication US20020197702.

B1: r-caspase-3 (His)6 (protein)
chain 1: SGISLDNSYKMDYPEMGLCIIINNKNFHKSTGMTSRSGTDVDAANLRETFRNLKYEVRNKNDLTREEIVELMRDVSKEDHSKRSSFVCVLLSHGEEGIIFGTNGPVDLKKITNFFRGDRCRSLTGKPKLFIIQACRGTELDCGIETD
chain 2: SGVDDDMACHKIPVEADFLYAYSTAPGYYSWRNSKDGSWFIQSLCAMLKQYADKLEFMHILTRVNRKVATEFESFSFDATFHAKKQIPCIVSMLTKELYFYHHHHHHH
B2: affinity purified membrane derived caspase-3 from 697 cell heavy membranes (protein)
chain 1: KNLEPKIIHGSESMDSGISLDNSYKMDYPEMGLCIIINNKNFHKSTGMTSRSGTDVDAANLRETFRNLKYEVRNKNDLTREEIVELMRDVSKEDHSKRSSFVCVLLSHGEEGIIFGTNGPVDLKKITNFFRGDRCRSLTGKPKLFIIQACRGTELDCGIETD
chain 2: SGVDDDMACHKIPVDADFLYAYSTAPGYYSWRNSKDGSWFIQSLCAMLKQYADKLEFMHILTRVNRKVATEFESFSFDATFHAKKQIPCIVSMLTKELYFYH
B3: recombinant murine caspase-1 (protein)
chain: NKEDGTFPGLTGTLKFCPLEKAQKLWKENPSEIYPIMNTTTRTRLALIICNTEFQHLSPRVGAQVDLREMKLLLEDLGYTVKVKENLTALEMVKEVKEFAACPEHKTSDSTFLVFMSHGIQEGICGTTYSNEVSDILKVDTIFQMMNTLKCPSLKDKPKVIIIQACRGEKQGVVLLKDSVRDSEEDFLTDAIFEDDGIKKAHIEKDFIAFCSSTPDNVSWRHPVRGSLFIESLIKHMKEYAWSCDLEDIFRKVRFSFEQPEFRLQMPTADRVTLTKRFYLFPGH

Tests used:
[1] = molecular target: T1, DEVD-amc (Acetyl-Asp-Glu-Val-Asp-aminomethylcoumarin)
T1 chain: DEVD

[2] = molecular target: T2, membrane derived procaspase-3, P42574
T2 chain: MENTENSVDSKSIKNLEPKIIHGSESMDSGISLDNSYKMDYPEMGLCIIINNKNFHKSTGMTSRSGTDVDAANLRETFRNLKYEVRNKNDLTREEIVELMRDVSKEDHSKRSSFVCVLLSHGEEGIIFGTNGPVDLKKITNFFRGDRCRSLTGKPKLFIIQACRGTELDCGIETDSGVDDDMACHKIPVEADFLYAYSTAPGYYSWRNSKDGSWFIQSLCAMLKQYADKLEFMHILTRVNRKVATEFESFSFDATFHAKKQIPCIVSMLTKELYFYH

Protein	kcat/KM for DEVD-AMC hydrolysis [1]	KM for DEVD-AMC hydrolysis [1]	activation of DEVD-AMC hydrolysis activity in heavy membranes [2]	time course of activation of DEVD-AMC hydrolysis activity [2]
B1	the kcat/KM value for the recombinant caspase-3 (1,200,000 M^-1sec^-1)			
B2	must be >=400,000 M^-1sec^-1	The observed KM value for the purified caspase (10 uM)		
B3			Treatment with recombinant caspase-1 causes a rapid, robust activation of the membrane caspase	The lack of a detectable time lag in the time course plot
